Data taken from US20260049138A1 (Chugai, published 2026).
Positions count from the first letter of the chain named. Names and notes keep the numbering of the source.

B1: GLS3000 N28W one-arm antibody (antibody, human IgG1, kappa, L234A L235A, N297A, name in Kabat numbering)
heavy: QVQLVESGGGVVQPGRSLRLSCAASGFTFSNAWMHWVRQAPGKGLEWVAQIKAKSNNYATYYAESVKGRFTISRDDSKNSLYLQMNSLKTEDTAVYYCRYVHYGAYYGVDAWGQGTTVTVSSASTKGPSVFPLAPSSKSTSGGTAALGCLVKDYFPEPVTVSWNSGALTSGVHTFPAVLQSSGLYSLSSVVTVPSSSLGTQTYICNVNHKPSNTKVDKKVEPKSCDKTHTCPPCPAPEAAGGPSVFLFPPKPKDTLMISRTPEVTCVVVDVSHEDPEVKFNWYVDGVEVHNAKTKPREEQYASTYRVVSVLTVLHQDWLNGKEYKCKVSNKALPAPIEKTISKAKGQPREPQVYTLPPSRCELTKNQVSLSCAVKGFYPSDIAVEWESNGQPENNYKTTPPVLDSDGSFFLVSKLTVDKSRWQQGNVFSCSVMHEALHNHYTQKSLSLSPDYKDDDDK
chain: EPKSSDKTHTCPPCPAPELLGGPSVFLFPPKPKDTLMISRTPEVTCVVVDVSHEDPEVKFNWYVDGVEVHNAKTKPREEQYNSTYRVVSVLTVLHQDWLNGKEYKCKVSNKALPAPIEKTISKAKGQPREPQVCTLPPSRDELTKNQVSLWCLVKGFYPSDIAVEWESNGQPENNYKTTPPVLDSDGSFFLYSKLTVDKSRWQQGNVFSCSVMHEALHNRYTQKSLSLSP
light: DIVMTQSPLSLPVTPGEPASISCRSSQSLVHSWRNTYLHWYQQKPGQAPRLLIYKVSNRFSGVPDRFSGSGSGTDFTLKISRVEAEDVGVYYCGQGTQVPYTFGQGTKLEIKRTVAAPSVFIFPPSDEQLKSGTASVVCLLNNFYPREAKVQWKVDNALQSGNSQESVTEQDSKDSTYSLSSTLTLSKADYEKHKVYACEVTHQGLSSPVTKSFNRGEC
B2: GLS3000 N30V one-arm antibody (antibody, human IgG1, kappa, L234A L235A, N297A, name in Kabat numbering)
heavy: B1 heavy
chain: B1 chain
light: B1 light with W33N, N35V
B3: GLS3000 N53E one-arm antibody (antibody, human IgG1, kappa, L234A L235A, N297A, name in Kabat numbering)
heavy: B1 heavy
chain: B1 chain
light: B1 light with W33N, N58E
B4: GLS3000 N53R one-arm antibody (antibody, human IgG1, kappa, L234A L235A, N297A, name in Kabat numbering)
heavy: B1 heavy
chain: B1 chain
light: B1 light with W33N, N58R
B5: GLS3000 N30H one-arm antibody (antibody, human IgG1, kappa, L234A L235A, N297A, name in Kabat numbering)
heavy: B1 heavy
chain: B1 chain
light: B1 light with W33N, N35H
B6: GLS3000 N30W one-arm antibody (antibody, human IgG1, kappa, L234A L235A, N297A, name in Kabat numbering)
heavy: B1 heavy
chain: B1 chain
light: B1 light with W33N, N35W
B7: GLS3000 N30T one-arm antibody (antibody, human IgG1, kappa, L234A L235A, N297A, name in Kabat numbering)
heavy: B1 heavy
chain: B1 chain
light: B1 light with W33N, N35T
B8: GLS3000 N30Y one-arm antibody (antibody, human IgG1, kappa, L234A L235A, N297A, name in Kabat numbering)
heavy: B1 heavy
chain: B1 chain
light: B1 light with W33N, N35Y
B9: GLS3000 N30A one-arm antibody (antibody, human IgG1, kappa, L234A L235A, N297A, name in Kabat numbering)
heavy: B1 heavy
chain: B1 chain
light: B1 light with W33N, N35A
B10: GLS3000 N53S one-arm antibody (antibody, human IgG1, kappa, L234A L235A, N297A, name in Kabat numbering)
heavy: B1 heavy
chain: B1 chain
light: B1 light with W33N, N58S
B11: GLS3000 N30G one-arm antibody (antibody, human IgG1, kappa, L234A L235A, N297A, name in Kabat numbering)
heavy: B1 heavy
chain: B1 chain
light: B1 light with W33N, N35G
B12: GLS3000 N53H one-arm antibody (antibody, human IgG1, kappa, L234A L235A, N297A, name in Kabat numbering)
heavy: B1 heavy
chain: B1 chain
light: B1 light with W33N, N58H
B13: GLS3000 N53K one-arm antibody (antibody, human IgG1, kappa, L234A L235A, N297A, name in Kabat numbering)
heavy: B1 heavy
chain: B1 chain
light: B1 light with W33N, N58K
B14: GLS3000 N30P one-arm antibody (antibody, human IgG1, kappa, L234A L235A, N297A, name in Kabat numbering)
heavy: B1 heavy
chain: B1 chain
light: B1 light with W33N, N35P
B15: GLS3000 N30D one-arm antibody (antibody, human IgG1, kappa, L234A L235A, N297A, name in Kabat numbering)
heavy: B1 heavy
chain: B1 chain
light: B1 light with W33N, N35D
B16: GLS3000 N30S one-arm antibody (antibody, human IgG1, kappa, L234A L235A, N297A, name in Kabat numbering)
heavy: B1 heavy
chain: B1 chain
light: B1 light with W33N, N35S
B17: GLS3000 N53D one-arm antibody (antibody, human IgG1, kappa, L234A L235A, N297A, name in Kabat numbering)
heavy: B1 heavy
chain: B1 chain
light: B1 light with W33N, N58D
B18: GLS3000 N30Q one-arm antibody (antibody, human IgG1, kappa, L234A L235A, N297A, name in Kabat numbering)
heavy: B1 heavy
chain: B1 chain
light: B1 light with W33N, N35Q
B19: GLS3000 N53Q one-arm antibody (antibody, human IgG1, kappa, L234A L235A, N297A, name in Kabat numbering)
heavy: B1 heavy
chain: B1 chain
light: B1 light with W33N, N58Q
B20: GLS3000 N53A one-arm antibody (antibody, human IgG1, kappa, L234A L235A, N297A, name in Kabat numbering)
heavy: B1 heavy
chain: B1 chain
light: B1 light with W33N, N58A
B21: GLS3000 N28Y one-arm antibody (antibody, human IgG1, kappa, L234A L235A, N297A, name in Kabat numbering)
heavy: B1 heavy
chain: B1 chain
light: B1 light with W33Y
B22: GLS3000 N53L one-arm antibody (antibody, human IgG1, kappa, L234A L235A, N297A, name in Kabat numbering)
heavy: B1 heavy
chain: B1 chain
light: B1 light with W33N, N58L
B23: GLS3000 N30I one-arm antibody (antibody, human IgG1, kappa, L234A L235A, N297A, name in Kabat numbering)
heavy: B1 heavy
chain: B1 chain
light: B1 light with W33N, N35I
B24: GLS3000 N53G one-arm antibody (antibody, human IgG1, kappa, L234A L235A, N297A, name in Kabat numbering)
heavy: B1 heavy
chain: B1 chain
light: B1 light with W33N, N58G
B25: GLS3000 N53M one-arm antibody (antibody, human IgG1, kappa, L234A L235A, N297A, name in Kabat numbering)
heavy: B1 heavy
chain: B1 chain
light: B1 light with W33N, N58M
B26: GLS3000 N30R one-arm antibody (antibody, human IgG1, kappa, L234A L235A, N297A, name in Kabat numbering)
heavy: B1 heavy
chain: B1 chain
light: B1 light with W33N, N35R
B27: GLS3000 N30F one-arm antibody (antibody, human IgG1, kappa, L234A L235A, N297A, name in Kabat numbering)
heavy: B1 heavy
chain: B1 chain
light: B1 light with W33N, N35F
B28: GLS3000 N30L one-arm antibody (antibody, human IgG1, kappa, L234A L235A, N297A, name in Kabat numbering)
heavy: B1 heavy
chain: B1 chain
light: B1 light with W33N, N35L
B29: GLS3000 N53P one-arm antibody (antibody, human IgG1, kappa, L234A L235A, N297A, name in Kabat numbering)
heavy: B1 heavy
chain: B1 chain
light: B1 light with W33N, N58P
B30: GLS3000 N30E one-arm antibody (antibody, human IgG1, kappa, L234A L235A, N297A, name in Kabat numbering)
heavy: B1 heavy
chain: B1 chain
light: B1 light with W33N, N35E
B31: GLS3000 N53I one-arm antibody (antibody, human IgG1, kappa, L234A L235A, N297A, name in Kabat numbering)
heavy: B1 heavy
chain: B1 chain
light: B1 light with W33N, N58I
B32: GLS3000 N30M one-arm antibody (antibody, human IgG1, kappa, L234A L235A, N297A, name in Kabat numbering)
heavy: B1 heavy
chain: B1 chain
light: B1 light with W33N, N35M
B33: GLS3000 N53F one-arm antibody (antibody, human IgG1, kappa, L234A L235A, N297A, name in Kabat numbering)
heavy: B1 heavy
chain: B1 chain
light: B1 light with W33N, N58F
B34: GLS3000 N30K one-arm antibody (antibody, human IgG1, kappa, L234A L235A, N297A, name in Kabat numbering)
heavy: B1 heavy
chain: B1 chain
light: B1 light with W33N, N35K

target: T1, CD3ε homodimer protein (human, UniProt P07766 23-126, limits assumed); assay: SPR Biacore T200, CD3ε homodimer on chip;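 further: Light-chain single-residue variant antibodies injected over amine-coupled CD3ε homodimer on a CM4 chip at 25 °C, bound amount divided by that of the GLS3000-containing antibody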
T1 construct: also called CD3 (CD3ε)
T1 sequence (P07766 23-126 limits assumed): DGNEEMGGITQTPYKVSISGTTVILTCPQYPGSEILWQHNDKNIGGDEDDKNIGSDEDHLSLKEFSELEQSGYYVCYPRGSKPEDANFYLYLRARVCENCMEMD

First: B1
Second: B2
The “ratio of amount bound vs unaltered GLS3000” value (from here on “ratio of amount bound”) of the first is lower: 0.41 for the first, 0.61 for the second.

Going from B3 to B4, the “ratio of amount bound” value rises from 0.54 to 1.58.

Compared with B5, B6 is higher in “ratio of amount bound” value: 0.98 for the first, 0.99 for the second.

Going from B7 to B8, the “ratio of amount bound” value rises from 0.29 to 1.04.

First: B9
Second: B10
The “ratio of amount bound” value of the first is lower: 0.5 for the first, 0.69 for the second.

Compared with B11, B12 is higher in “ratio of amount bound” value: 0.47 for the first, 1.18 for the second.

First: B13
Second: B14
The “ratio of amount bound” value of the first is higher: 1.08 for the first, 0.31 for the second.

First: B15
Second: B16
The “ratio of amount bound” value of the first is higher: 0.34 for the first, 0.29 for the second.

Going from B17 to B18, the “ratio of amount bound” value rises from 0.34 to 0.87.

Going from B19 to B20, the “ratio of amount bound” value falls from 0.77 to 0.61.

Going from B21 to B22, the “ratio of amount bound” value rises from 0.26 to 0.56.

First: B23
Second: B24
The “ratio of amount bound” value of the first is lower: 0.61 for the first, 0.76 for the second.

Compared with B25, B26 is higher in “ratio of amount bound” value: 0.62 for the first, 1.86 for the second.

Going from B27 to B28, the “ratio of amount bound” value falls from 1.1 to 0.7.

First: B29
Second: B30
The “ratio of amount bound” value of the first is higher: 0.81 for the first, 0.44 for the second.

Compared with B31, B32 is higher in “ratio of amount bound” value: 0.5 for the first, 0.8 for the second.

Compared with B33, B34 is higher in “ratio of amount bound” value: 0.69 for the first, 1.65 for the second.
